Test results: US20240132615A1 (ICHNOS SCIENCES, published 2024)

What was measured:
[1] = biological target: T1, human CD3 on cells (HPB-ALL cells, primary human T cells) (human, UniProt P07766 23-207); test: flow cytometry on CD4+ T cells in human PBMCs, anti-human IgG PE secondary
T1 construct: whole, on cells; only the epsilon chain is written

[2] = biological target: T2, recombinant cynomolgus monkey BCMA protein (Acrobiosystems BCA-C52H7) (cynomolgus monkey, UniProt A0A2K5UD97 1-53); test: SPR, Fab as analyte, immobilised cynomolgus BCMA
T2 sequence (A0A2K5UD97 entry or part of it): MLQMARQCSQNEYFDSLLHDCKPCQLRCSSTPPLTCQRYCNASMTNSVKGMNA

[3] = biological target: T3, recombinant human BCMA protein (Acrobiosystems BCA-H522y) (human, UniProt Q02223 1-54); test: SPR, Fab as analyte, immobilised human BCMA, 1:1 Langmuir
T3 construct: bought protein
T3 sequence (looked up): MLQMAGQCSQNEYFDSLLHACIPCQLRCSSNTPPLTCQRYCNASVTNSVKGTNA

[4] = biological target: T2, recombinant cynomolgus monkey BCMA …; test: SPR, Fab as analyte, immobilised cynomolgus BCMA, 1:1 Langmuir
[5] = biological target: T4, human CD3 on primary human CD38-negative T cells (human, UniProt P07766 23-207; P04234 22-171; P09693 23-182); test: flow cytometry on primary human CD38-negative T cells, one-site binding fit
T4 construct: whole, on cells; Native CD3 within the TCR/CD3 complex on isolated human T cells, gated CD38-negative
T4 sequence (P07766 23-207, chain 1 of 3): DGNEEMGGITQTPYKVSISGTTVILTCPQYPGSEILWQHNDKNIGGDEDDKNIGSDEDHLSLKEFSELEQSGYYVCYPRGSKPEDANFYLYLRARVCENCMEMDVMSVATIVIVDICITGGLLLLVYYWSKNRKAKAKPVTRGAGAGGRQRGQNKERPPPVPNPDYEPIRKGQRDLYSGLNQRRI
T4 sequence (P04234 22-171, chain 2 of 3): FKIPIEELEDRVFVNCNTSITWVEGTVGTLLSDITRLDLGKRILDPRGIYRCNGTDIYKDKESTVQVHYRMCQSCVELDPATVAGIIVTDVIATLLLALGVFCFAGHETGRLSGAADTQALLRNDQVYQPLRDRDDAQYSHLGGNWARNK
T4 sequence (P09693 23-182, chain 3 of 3): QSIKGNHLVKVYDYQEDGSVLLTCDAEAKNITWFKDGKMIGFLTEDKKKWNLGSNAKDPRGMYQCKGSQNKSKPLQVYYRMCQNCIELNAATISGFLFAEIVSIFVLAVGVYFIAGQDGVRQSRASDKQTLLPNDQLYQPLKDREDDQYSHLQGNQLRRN

[6] = biological target: T5, human BCMA on cells (NCI-H929, NCI-H929 CD38 KO, MOLP-8) (human, UniProt Q02223 1-184); test: flow cytometry, NCI-H929 cells
T5 construct: whole, on cells; endogenous BCMA of myeloma cell lines
T5 sequence (looked up): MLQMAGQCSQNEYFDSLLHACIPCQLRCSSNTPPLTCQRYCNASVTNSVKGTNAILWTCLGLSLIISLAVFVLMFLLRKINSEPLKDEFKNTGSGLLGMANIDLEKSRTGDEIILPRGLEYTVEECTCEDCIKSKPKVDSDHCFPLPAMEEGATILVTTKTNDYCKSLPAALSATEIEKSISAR

[7] = biological target: T5, human BCMA on cells (NCI-H929, NCI-H929 …); test: flow cytometry, NCI-H929 cells, one-site fit
[8] = biological target: T6, Biotinylated Human BCMA/TNFRSF17 Protein, His, Avitag (Acrobiosystems BCA-H82E4) (human, UniProt Q02223 1-54, biotinylated); test: SPR, Fab as analyte, biotin-captured human BCMA
T6 construct: bought protein; also called biotinylated recombinant human BCMA protein; hBCMA
T6 sequence (looked up): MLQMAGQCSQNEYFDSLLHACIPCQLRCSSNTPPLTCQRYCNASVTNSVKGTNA

[9] = biological target: T7, biotinylated recombinant cynomolgus monkey BCMA Fc fusion protein (Acrobiosystems BCA-C82F4) (cynomolgus monkey, UniProt A0A2K5UD97 1-53); test: SPR, Fab as analyte, biotin-captured cynomolgus BCMA-Fc
T7 construct: bought protein; not shown: Fc of the bought fusion protein, not described
T7 sequence (A0A2K5UD97 entry or part of it): as the sequence (A0A2K5UD97 entry or part of it) above

[10] = biological target: T1, human CD3 on cells (HPB-ALL cells, …); test: flow cytometry, human CD4+ T cells

T1 sequence (P07766 23-207): as the sequence (P07766 23-207, chain 1 of 3) above

B1: Anti-CD3-UCP07-A4 IgG1LALA (antibody, V domains shown)
VH: EVQLLESGGGLVQPGGSLRLSCAASGSTFRRYVMGWVRQAPGKGLEWVSAISQQGGYTYYADSVKGRFTISRDNSKNTLYLQMNSLRAEDTAVYYCARSSSSAFDVWGQGTLVTVSS
VL: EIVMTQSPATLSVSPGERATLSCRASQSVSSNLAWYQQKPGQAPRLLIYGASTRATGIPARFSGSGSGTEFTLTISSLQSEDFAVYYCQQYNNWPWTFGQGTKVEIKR
notes: IgG1 LALA
binding result [1]: no binding (tested: 800 nM)

B2: anti-BCMA-UCP01-E8 FAB (Fab, V domains shown)
VH: QVQLVQSGAEVKKPGSSVKVSCKASGGQFSVQFISWVRQAPGQGLEWMGGIIPTSGDTYYAQKFQGRVTITADESTSTAYMELSSLRSEDTAVYYCARSVVDLSYVTGYYYMDIWGQGTLVTVSS
VL: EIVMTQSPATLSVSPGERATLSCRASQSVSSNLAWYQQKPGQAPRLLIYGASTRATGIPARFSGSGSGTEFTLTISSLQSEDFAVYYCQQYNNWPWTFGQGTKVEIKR
notes: Fab
binding result [2]: no binding | Kd [3]: 1740 nM

B3: anti-BCMA-UCP01-A8 FAB (Fab, V domains shown)
VH: QVQLVQSGAEVKKPGSSVKVSCKASGGLFNYYIINWVRQAPGQGLEWMGGIIPTYGGAGYAQKFQGRVTITADESTSTAYMELSSLRSEDTAVYYCARSSPSISGYAFDVWGQGTLVTVSS
VL: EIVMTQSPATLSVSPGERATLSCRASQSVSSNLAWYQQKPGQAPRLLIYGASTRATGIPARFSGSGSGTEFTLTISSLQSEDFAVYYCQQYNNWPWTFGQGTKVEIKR
notes: Fab
binding result [2]: no binding | Kd [3]: 235 nM

B4: anti-BCMA-PP02-D3 FAB (Fab, V domains shown)
VH: EVQLVESGGGLIQPGGSLRLSCAASGFIFSHYEMNWVRQAPGKGLEWVSAIGQGGNTVYADSVKGRFTISRDNSKNTLYLQMNSLRAEDTAVYYCARVPYSYSGYSGADIWGQGTLVTVSS
VL: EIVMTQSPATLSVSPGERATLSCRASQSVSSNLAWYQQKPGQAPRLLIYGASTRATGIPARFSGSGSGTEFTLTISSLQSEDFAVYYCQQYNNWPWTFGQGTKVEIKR
notes: Fab; also called anti-BCMA-D3; anti-BCMA-D3 Fab
Kd [4]: 40 nM | Kd [3]: 15 nM

B5: anti-BCMA-UCP01-E9 FAB (Fab, V domains shown)
VH: EVQLLESGGGLVQPGGSLRLSCAASGFTFSNYAMSWVRQAPGKGLEWVSVISERGAVTVYADSVKGRFTISRDNSKNTLYLQMNSLRAEDTAVYYCARSPYGYSSGVEGYFGFDVWGQGTLVTVSS
VL: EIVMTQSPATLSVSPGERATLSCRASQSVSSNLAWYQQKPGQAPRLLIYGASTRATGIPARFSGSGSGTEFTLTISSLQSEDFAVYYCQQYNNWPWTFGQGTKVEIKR
notes: Fab
Kd [4]: 236 nM | Kd [3]: 10 nM

B6: anti-BCMA-PP02-F1 FAB (Fab, V domains shown)
VH: EVQLLESGGGLVQPGGSLRLSCAASGFSFSEYAMSWVRQAPGKGLEWVSALSLSGDVTSYADSVKGRFTISRDNSKNTLYLQMNSLRAEDTAVYYCARSPYSRVGDSYYYDYIGFDIWGQGTLVTVSS
VL: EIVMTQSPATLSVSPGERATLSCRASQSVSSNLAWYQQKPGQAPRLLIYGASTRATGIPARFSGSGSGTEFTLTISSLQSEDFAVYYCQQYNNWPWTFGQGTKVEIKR
notes: Fab
Kd [4]: 598 nM | Kd [3]: 145 nM

B7: Anti-CD3-UCP07-B2 IgG1LALA (antibody, V domains shown)
VH: EVQLVESGGGLVKPGGSLRLSCAASGFDFGKAWMAWVRQAPGKGLEWVGRIKSDFKGGDTIYAAPVKGRFTISRDDSKNTLYLQMNSLKTEDTAVYYCARGRSRGVSEFDYWGQGTLVTVSS
VL: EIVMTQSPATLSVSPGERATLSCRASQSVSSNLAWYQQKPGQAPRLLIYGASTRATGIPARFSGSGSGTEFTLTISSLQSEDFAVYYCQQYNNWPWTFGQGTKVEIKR
notes: IgG1 LALA
binding result [1]: no binding (tested: 800 nM)

B8: anti-BCMA-UCP01-F9 FAB (Fab, V domains shown)
VH: QVQLVQSGAEVKKPGSSVKVSCKASGYKFRTYAINWVRQAPGQGLEWMGGIVPISGETFYAQKFQGRVTITADESTSTAYMELSSLRSEDTAVYYCAREDYSDYWGQGTLVTVSS
VL: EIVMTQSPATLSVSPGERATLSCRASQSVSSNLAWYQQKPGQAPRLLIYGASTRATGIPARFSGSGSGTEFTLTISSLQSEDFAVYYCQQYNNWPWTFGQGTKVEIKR
notes: Fab
binding result [2]: no binding | Kd [3]: 617 nM

B9: 83A10-TCBcv (bispecific antibody, human IgG1, kappa, L234A L235A)
chain 1: not shown
chain 2: not shown
chain 3: not shown
chain 4: EVQLLESGGGLVQPGGSLRLSCAASGFTFSTYAMNWVRQAPGKGLEWVSRIRSKYNNYATYYADSVKGRFTISRDDSKNTLYLQMNSLRAEDTAVYYCVRHGNFGNSYVSWFAYWGQGTLVTVSSASVAAPSVFIFPPSDEQLKSGTASVVCLLNNFYPREAKVQWKVDNALQSGNSQESVTEQDSKDSTYSLSSTLTLSKADYEKHKVYACEVTHQGLSSPVTKSFNRGEC
notes: CD3xBCMA bispecific comparator; also called EM-801; CD3xBCMA benchmark
Kd [5]: 80 nM | Max binding (RFI) [5]: 103000 RFI

B10: anti-BCMA-UCP01-C2 FAB (Fab, V domains shown)
VH: EVQLLESGGGLVQPGGSLRLSCAASGFIFSQYDMSWVRQAPGKGLEWVSAISLLGDFTSYADSVKGRFTISRDNSKNTLYLQMNSLRAEDTAVYYCARRLTDYISGGGDGFDVWGQGTLVTVSS
VL: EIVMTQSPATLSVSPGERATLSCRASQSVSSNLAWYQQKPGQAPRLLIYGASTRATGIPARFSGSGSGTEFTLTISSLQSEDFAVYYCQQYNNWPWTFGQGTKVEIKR
notes: Fab
binding result [2]: no binding | Kd [3]: 336 nM

B11: anti-BCMA-PP02-C2 FAB (Fab, V domains shown)
VH: QVQLVQSGAEVKKPGSSVKVSCKASGGHFSSYAISWVRQAPGQGLEWMGGIIPQHGVPSYAQKFQGRVTITADESTSTAYMELSSLRSEDTAVYYCARVLITVDGSYGGFDYWGQGTLVTVSS
VL: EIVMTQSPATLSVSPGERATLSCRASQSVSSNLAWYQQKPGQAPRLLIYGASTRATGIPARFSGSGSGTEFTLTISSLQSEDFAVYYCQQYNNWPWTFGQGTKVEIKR
notes: Fab
binding result [2]: no binding | Kd [3]: 915 nM

B12: Anti-BCMA-E6-PP02-G2 FAB (Fab, V domains shown)
VH: EVQLLESGGGLVQPGGSLRLSCAASGFTFSYYAMTWVRQAPGKGLEWVGTISQSVGQVVKYADSVKGRFTISRDNSKNTLYLQMNSLRAEDTAVYYCARSPYSYLHGYYGFDYWGQGTLVTVSS
VL: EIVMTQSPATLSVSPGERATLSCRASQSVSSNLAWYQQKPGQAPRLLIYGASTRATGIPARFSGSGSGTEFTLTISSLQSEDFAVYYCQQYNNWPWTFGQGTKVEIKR
notes: Fab
Maximum binding (RFI) [6]: 40500 RFI | Kd [7]: 5.22 nM | Kd [8]: 0.176 nM | Kd [9]: 0.728 nM

B13: anti-BCMA-PP03-E4 FAB (Fab, V domains shown)
VH: EVQLLESGGGLVQPGGSLRLSCAASGFALSYYAMSWVRQAPGKGLEWVSAISEDGGRTSYADSVKGRFTISRDNSKNTLYLQMNSLRAEDTAVYYCARASAYIPYSEFYAGFDVWGQGTLVTVSS
VL: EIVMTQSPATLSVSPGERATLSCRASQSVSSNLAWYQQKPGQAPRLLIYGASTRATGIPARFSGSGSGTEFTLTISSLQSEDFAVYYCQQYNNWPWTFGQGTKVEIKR
notes: Fab
Kd [4]: 696 nM | Kd [3]: 582 nM

B14: Anti-BCMA-E6-PP02-G6 FAB (Fab, V domains shown)
VH: EVQLLESGGGLVQPGGSLRLSCAASGFTFSYYAMTWVRQAPGKGLEWVSTIAQRGGQTKYADSVKGRFTISRDNSKNTLYLQMNSLRAEDTAVYYCARSPYSYLHGYYGFDYWGQGTLVTVSS
VL: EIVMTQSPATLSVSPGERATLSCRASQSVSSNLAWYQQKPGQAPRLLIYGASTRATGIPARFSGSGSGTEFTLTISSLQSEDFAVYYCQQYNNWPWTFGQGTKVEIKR
notes: Fab; also called anti-BCMA-E6-G6; E6-G6
Maximum binding (RFI) [6]: 46500 RFI | Kd [7]: 5.78 nM | Kd [8]: 0.33 nM | Kd [9]: 2.26 nM

B15: anti-BCMA-PP02-E6 FAB (Fab, V domains shown)
VH: EVQLLESGGGLVQPGGSLRLSCAASGFTFSYYAMTWVRQAPGKGLEWVSTISQNGGQTKYADSVKGRFTISRDNSKNTLYLQMNSLRAEDTAVYYCARSPYSYLHGYYGFDYWGQGTLVTVSS
VL: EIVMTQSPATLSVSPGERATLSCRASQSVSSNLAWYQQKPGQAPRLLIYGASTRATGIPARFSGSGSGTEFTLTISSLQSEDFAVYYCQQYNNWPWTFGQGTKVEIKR
notes: Fab; also called anti-BCMA-E6; anti-BCMA-E6 Fab
Kd [4]: 52 nM | Kd [3]: 18 nM

B16: Anti-BCMA-E6-PP02-G7 FAB (Fab, V domains shown)
VH: EVQLLESGGGLVQPGGSLRLSCAASGFTFSYYAMTWVRQAPGKGLEWVSTISQQWDVTKYADSVKGRFTISRDNSKNTLYLQMNSLRAEDTAVYYCARSPYSYLHGYYGFDYWGQGTLVTVSS
VL: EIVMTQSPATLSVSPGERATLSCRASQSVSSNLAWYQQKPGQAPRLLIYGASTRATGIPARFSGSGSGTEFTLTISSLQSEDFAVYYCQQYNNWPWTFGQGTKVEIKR
notes: Fab
Maximum binding (RFI) [6]: 39400 RFI | Kd [7]: 4.86 nM | Kd [8]: 0.061 nM | Kd [9]: 0.237 nM

B17: anti-BCMA-PP02-C4 FAB (Fab, V domains shown)
VH: EVQLLESGGGLVQPGGSLRLSCAASGFTFTAYDMSWVRQAPGKGLEWVSAISGFGGDTLYADSVKGRFTISRDNSKNTLYLQMNSLRAEDTAVYYCARIGYYYLDSAFDYWGQGTLVTVSS
VL: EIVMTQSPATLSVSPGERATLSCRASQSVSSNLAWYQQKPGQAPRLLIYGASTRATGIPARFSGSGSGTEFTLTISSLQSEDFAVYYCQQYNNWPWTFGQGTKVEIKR
notes: Fab
Kd [4]: 114 nM | Kd [3]: 608 nM

B18: anti-BCMA-PP03-C4 FAB (Fab, V domains shown)
VH: EVQLLESGGGLVQPGGSLRLSCAASGFTFTAYDMSWVRQAPGKGLEWVSAISGFGGDTLYADSVKGRFTISRDNSKNTLYLQMNSLRAEDTAVYYCARIGYYYLDSAFDYWGQGTLVTVSS
VL: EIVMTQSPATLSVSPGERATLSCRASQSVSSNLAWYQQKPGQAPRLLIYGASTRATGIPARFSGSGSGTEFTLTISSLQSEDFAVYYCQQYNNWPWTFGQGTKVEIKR
notes: Fab
Kd [4]: 109 nM | Kd [3]: 549 nM

B19: anti-BCMA-PP02-B4 FAB (Fab, V domains shown)
VH: EVQLLESGGGLVQPGGSLRLSCAASGFTFSNYDMSWVRQAPGKGLEWVSAISVSGDFTQYADSVKGRFTISRDNSKNTLYLQMNSLRAEDTAVYYCARVGYYLLDSAFDIWGQGTLVTVSS
VL: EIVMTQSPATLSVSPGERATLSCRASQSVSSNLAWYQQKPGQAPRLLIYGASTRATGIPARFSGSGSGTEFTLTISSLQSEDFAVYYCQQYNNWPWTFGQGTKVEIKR
notes: Fab
Kd [4]: 58 nM | Kd [3]: 648 nM

B20: Anti-CD3-UCP07-F3 IgG1LALA (antibody, V domains shown)
VH: EVQLLESGGGLVQPGGSLRLSCAASGFNFSGHAVGWVRQAPGKGLEWVSAISQNGGYTLYADSVKGRFTISRDNSKNTLYLQMNSLRAEDTAVYYCARAASYGLDYALDIWGQGTLVTVSS
VL: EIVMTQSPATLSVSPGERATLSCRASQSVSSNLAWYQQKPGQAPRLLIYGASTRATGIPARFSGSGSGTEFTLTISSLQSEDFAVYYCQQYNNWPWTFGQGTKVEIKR
notes: IgG1 LALA
binding result [1]: no binding (tested: 800 nM)

B21: Anti-CD3-UCP06-C1 IgG1LALA (antibody, V domains shown)
VH: QVQLVQSGAEVKKPGSSVKVSCKASGGKFSRYAISWVRQAPGQGLEWMGGIIPKGGYAEYAQKFQGRVTITADESTSTAYMELSSLRSEDTAVYYCARYGYSLYMDIWGQGTLVTVSS
VL: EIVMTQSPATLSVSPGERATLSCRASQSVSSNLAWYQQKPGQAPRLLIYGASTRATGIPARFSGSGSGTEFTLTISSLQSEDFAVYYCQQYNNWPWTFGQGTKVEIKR
notes: IgG1 LALA; also called anti-CD3-C1
EC50 (read off the curve) [1]: ~40 nM | MFI at 800 nM [10]: 45200 MFI
